Series [1] deals with collagen XI 10-mer peptide (non-helical C-telopeptide fragment). The series can be described thus: chronoamperometry (magnetic beads). To be noted: RT (electrochemistry), pH 7.4, PSA-1, B4 and truncations: 1x PBS (10 mM phosphate, 154 mM NaCl), 24nt variants: 10 mM Tris-HCl, 150 mM NaCl, 5 mM KCl.
The test system of series [2] is 33-mer immunodominant gluten (gliadin) peptide. The experiment in a line: chronoamperometry. Particulars: RT (electrochemistry), pH 7.4, PSA-1, B4 and truncations: 1x PBS (10 mM phosphate, 154 mM NaCl), 24nt variants: 10 mM Tris-HCl, 150 mM NaCl, 5 mM KCl.
Series [3] shares this test system. The experiment in a line: SPR. Particulars: RT (electrochemistry), pH 7.4, PSA-1, B4 and truncations: 1x PBS (10 mM phosphate, 154 mM NaCl), 24nt variants: 10 mM Tris-HCl, 150 mM NaCl, 5 mM KCl.
Series [4] addresses T1, prostate specific antigen (PSA) (human, UniProt P07288 25-261). The experiment in a line: chronoamperometry; RT (electrochemistry), pH 7.4; PSA-1, B4 and truncations: 1x PBS (10 mM phosphate, 154 mM NaCl); 24nt variants: 10 mM Tris-HCl, 150 mM NaCl, 5 mM KCl, 5 mM MgCl2; Gli1 series: 50 mM Tris-HCl, 250 mM NaCl, 5 mM MgCl2. Particulars: protein: native; label: 5' 6FAM.
In series [5] the target is T1, prostate specific antigen (PSA). The experiment in a line: SPR; RT (electrochemistry), pH 7.4; PSA-1, B4 and truncations: 1x PBS (10 mM phosphate, 154 mM NaCl); 24nt variants: 10 mM Tris-HCl, 150 mM NaCl, 5 mM KCl, 5 mM MgCl2; Gli1 series: 50 mM Tris-HCl, 250 mM NaCl, 5 mM MgCl2. To be noted: protein: native; label: 5' 6FAM. On the technique in general: Surface plasmon resonance follows binding to a sensor surface in real time, without labels.

Series [6] shares this target. The experiment in a line: SPR; 5 mM MgCl2; RT (electrochemistry), pH 7.4; PSA-1, B4 and truncations: 1x PBS (10 mM phosphate, 154 mM NaCl); 24nt variants: 10 mM Tris-HCl, 150 mM NaCl, 5 mM KCl, 5 mM MgCl2; Gli1 series: 50 mM Tris-HCl, 250 mM NaCl, 5 mM MgCl2. Particulars: protein: native; label: 5' 6FAM; hairpin.
Series [7] shares this target. The series can be described thus: chronoamperometry; 5 mM MgCl2; RT (electrochemistry), pH 7.4; PSA-1, B4 and truncations: 1x PBS (10 mM phosphate, 154 mM NaCl); 24nt variants: 10 mM Tris-HCl, 150 mM NaCl, 5 mM KCl, 5 mM MgCl2; Gli1 series: 50 mM Tris-HCl, 250 mM NaCl, 5 mM MgCl2. To be noted: protein: native; label: 5' 6FAM; hairpin.

One may read the Kd as the equilibrium constant for the complex coming apart. The low end stands for a tighter complex, the high end for a looser complex.

T1 sequence (P07288 25-261): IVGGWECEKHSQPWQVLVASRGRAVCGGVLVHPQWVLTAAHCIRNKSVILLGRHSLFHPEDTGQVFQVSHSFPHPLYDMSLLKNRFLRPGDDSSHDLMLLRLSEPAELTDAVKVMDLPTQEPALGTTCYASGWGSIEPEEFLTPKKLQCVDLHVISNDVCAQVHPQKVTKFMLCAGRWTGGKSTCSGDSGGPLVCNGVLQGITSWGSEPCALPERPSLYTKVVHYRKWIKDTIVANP

“TTTTTATTCAGGGCACCTGGAACGACGCGTCGGCT [B4T(11-40)]” yielded a Kd in series [1] of 44 nM. For the molecule “CTAGGCGAAATATAGCTACAACTGTCTGA [Gli1T(1-29)]”, the Kd in series [2] stood at 86 nM; in series [3], 71 nM. For “CTAGGCGAAATATAGCTACAACTGTCTGAAGGCACCCAAT [Gli1]”, the figures for the dissociation constant Kd in series [2] and in series [3] were 136 nM and 155 nM, respectively. Molecule “TTTTTGACGCAAGAAATTCAGGGCACCTGGAACGACGCGTCGGCT [B4]” displayed a dissociation constant Kd in series [1] of 147 nM. TTTTTTATTTAACCAAAAGTCTGGATTAACA (ssDNA) [PSA-1T(15-40)]: the Kd amounted to 111 ± 9 nM in series [4] and 130 ± 25 nM in series [5].

TTTTTAATTAAAGCTCGCCATCAAATAGC (ssDNA) [5Ts-24nt]: the values for the Kd in series [6] and in series [7] were 545 ± 24 nM and 460 ± 64 nM, respectively. As to TTTTTGGACGGTTGCGCTATATTTAACCAAAAGTCTGGATTAACA (ssDNA) [PSA-1], the dissociation constant Kd in series [4] was determined as 348 ± 58 nM; in series [5], 125 ± 21 nM.

Regarding TTTTTAATTAAAGCTCGCCATCAAATAGCTTT (ssDNA) [5Ts-24nt-3Ts (deltaPSap4#5)], the dissociation constant Kd in series [6] was determined as 232 ± 4 nM; in series [7], 152 ± 9 nM.

The values are drawn from paper PMC12261273, “Refinement and Truncation of DNA Aptamers Based on Molecular Dynamics Simulations: Computational Protocol and Experimental Validation”.
